Results as given in the supplement of paper PMC10567573.

B1: BTBD1 (parent)
chain: YGSIHGPTDYQVNIQIIEYEKKQT

Variants of: B1
Test: protein stability index of a GFP-peptide fusion (GPS, HEK-293T) (PSI 1-6); higher = more stable
Settings: c terminus: a fixed tail appended
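Also: lentivirally expressed fusions sorted by FACS into six bins by GFP to DsRed ratio, PSI derived from sequencing read proportions per bin multiplied by bin number.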

Compared with YGSIHGPTDYQVNIQIKEYEKKQT [I17K], YGSIHGPTDYQVNIQIEEYEKKQT [I17E] is higher in protein stability index: 3.53 for the first, 3.69 for the second.

Going from YGSIHGPTDYQVNIQIREYEKKQT [I17R] to YGSIHGPTDYQVNIQIYEYEKKQT [I17Y], the protein stability index falls from 2.87 to 2.77.

Compared with YGSIHGPTDYQVNIQICEYEKKQT [I17C], YGSIHGPTDYQVNIQIWEYEKKQT [I17W] is higher in protein stability index: 2.62 for the first, 2.71 for the second.

First: YGSIHGPTDYQVNIQIPEYEKKQT [I17P]
Second: YGSIHGPTDYQVNIQIVEYEKKQT [I17V]
The protein stability index of the first is higher: 3.44 for the first, 2.68 for the second.

Compared with YGSIHGPTDYQVNIQIIEDEKKQT [Y19D], YGSIHGPTDYQVNIQIIENEKKQT [Y19N] is lower in protein stability index: 3.76 for the first, 3.29 for the second.

Going from YGSIHGPTDYQVNIQIIEMEKKQT [Y19M] to YGSIHGPTDYQVNIQIIEGEKKQT [Y19G], the protein stability index rises from 3.03 to 3.36.

Compared with YGSIHGPTDYQVNIQIIEKEKKQT [Y19K], YGSIHGPTDYQVNIQIIETEKKQT [Y19T] is lower in protein stability index: 3.38 for the first, 2.92 for the second.

Compared with YGSIHGPTDYQVNIQIIEAEKKQT [Y19A], YGSIHGPTDYQVNIQIIEIEKKQT [Y19I] is lower in protein stability index: 3.19 for the first, 2.39 for the second.

Going from YGSIHGPTDYQVNIQIIESEKKQT [Y19S] to YGSIHGPTDYQVNIQIIEPEKKQT [Y19P], the protein stability index rises from 3.56 to 3.67.

Going from YGSIHGPTDYQVNIQIIEREKKQT [Y19R] to YGSIHGPTDYQVNIQIIEFEKKQT [Y19F], the protein stability index falls from 3.01 to 2.14.

First: YGSIHGPTDYQVNIQIIELEKKQT [Y19L]
Second: YGSIHGPTDYQVNIQIIEQEKKQT [Y19Q]
The protein stability index of the first is lower: 2.54 for the first, 3.29 for the second.

Compared with YGSIHGPTDYQVNIQIIECEKKQT [Y19C], YGSIHGPTDYQVNIQIIEEEKKQT [Y19E] is higher in protein stability index: 2.69 for the first, 4.05 for the second.

Compared with YGSIHGPTDYQVNIQIIEVEKKQT [Y19V], YGSIHGPTDYQVNIQIIEWEKKQT [Y19W] is higher in protein stability index: 2.44 for the first, 2.5 for the second.

Compared with YGSIHGPTDYQVNIQIIEHEKKQT [Y19H], YGSIHGPTDYQVNIQIIYYEKKQT [E18Y] is higher in protein stability index: 3.23 for the first, 3.61 for the second.

Going from YGSIHGPTDYQVNIQIIGYEKKQT [E18G] to YGSIHGPTDYQVNIQIIMYEKKQT [E18M], the protein stability index rises from 2.24 to 2.44.

First: YGSIHGPTDYQVNIQIICYEKKQT [E18C]
Second: YGSIHGPTDYQVNIQIIWYEKKQT [E18W]
The protein stability index of the first is lower: 1.86 for the first, 3.17 for the second.

Compared with YGSIHGPTDYQVNIQIIKYEKKQT [E18K], YGSIHGPTDYQVNIQIITYEKKQT [E18T] is lower in protein stability index: 2.61 for the first, 2.07 for the second.

Going from YGSIHGPTDYQVNIQIIFYEKKQT [E18F] to YGSIHGPTDYQVNIQIIDYEKKQT [E18D], the protein stability index falls from 3.79 to 2.64.

Going from YGSIHGPTDYQVNIQIIRYEKKQT [E18R] to YGSIHGPTDYQVNIQIIQYEKKQT [E18Q], the protein stability index rises from 1.85 to 2.1.

Compared with YGSIHGPTDYQVNIQIISYEKKQT [E18S], YGSIHGPTDYQVNIQIIPYEKKQT [E18P] is higher in protein stability index: 1.88 for the first, 2.17 for the second.

Going from YGSIHGPTDYQVNIQIIIYEKKQT [E18I] to YGSIHGPTDYQVNIQIIAYEKKQT [E18A], the protein stability index falls from 3.84 to 1.71.

First: YGSIHGPTDYQVNIQIIVYEKKQT [E18V]
Second: YGSIHGPTDYQVNIQIIHYEKKQT [E18H]
The protein stability index of the first is higher: 3.19 for the first, 1.84 for the second.

First: YGSIHGPTDYQVNIQIILYEKKQT [E18L]
Second: YGSIHGPTDYQVNIQIINYEKKQT [E18N]
The protein stability index of the first is higher: 3.33 for the first, 2.17 for the second.

Going from YGSIHGPTDYQVNIQIIEYEKFQT [K22F] to YGSIHGPTDYQVNIQIIEYEKQQT [K22Q], the protein stability index rises from 1.39 to 2.75.

Going from YGSIHGPTDYQVNIQIIEYEKNQT [K22N] to YGSIHGPTDYQVNIQIIEYEKYQT [K22Y], the protein stability index falls from 2.5 to 2.47.

Compared with YGSIHGPTDYQVNIQIIEYEKCQT [K22C], YGSIHGPTDYQVNIQIIEYEKHQT [K22H] is higher in protein stability index: 1.52 for the first, 2.03 for the second.

Going from YGSIHGPTDYQVNIQIIEYEKAQT [K22A] to YGSIHGPTDYQVNIQIIEYEKTQT [K22T], the protein stability index falls from 2.18 to 1.93.

Compared with YGSIHGPTDYQVNIQIIEYEKLQT [K22L], YGSIHGPTDYQVNIQIIEYEKDQT [K22D] is higher in protein stability index: 2.03 for the first, 2.77 for the second.

Compared with YGSIHGPTDYQVNIQIIEYEKRQT [K22R], YGSIHGPTDYQVNIQIIEYEKGQT [K22G] is higher in protein stability index: 2.14 for the first, 2.24 for the second.

Compared with YGSIHGPTDYQVNIQIIEYEKMQT [K22M], YGSIHGPTDYQVNIQIIEYEKWQT [K22W] is lower in protein stability index: 2.59 for the first, 2.5 for the second.

First: YGSIHGPTDYQVNIQIIEYEKEQT [K22E]
Second: YGSIHGPTDYQVNIQIIEYEKSQT [K22S]
The protein stability index of the first is higher: 2.96 for the first, 1.78 for the second.

First: YGSIHGPTDYQVNIQIIEYEKIQT [K22I]
Second: YGSIHGPTDYQVNIQIIEYEKPQT [K22P]
The protein stability index of the first is lower: 1.56 for the first, 1.72 for the second.

Going from YGSIHGPTDYQVNIQIIEYEKVQT [K22V] to YGSIHGPTDYQVNIQIIEYEKKQH [T24H], the protein stability index rises from 2.54 to 2.9.

Going from YGSIHGPTDYQVNIQIIEYEKKQG [T24G] to YGSIHGPTDYQVNIQIIEYEKKQA [T24A], the protein stability index rises from 2.57 to 3.1.

Compared with YGSIHGPTDYQVNIQIIEYEKKQE [T24E], YGSIHGPTDYQVNIQIIEYEKKQF [T24F] is lower in protein stability index: 3.08 for the first, 1.84 for the second.

Going from YGSIHGPTDYQVNIQIIEYEKKQL [T24L] to YGSIHGPTDYQVNIQIIEYEKKQK [T24K], the protein stability index rises from 2.03 to 3.05.

Compared with YGSIHGPTDYQVNIQIIEYEKKQD [T24D], YGSIHGPTDYQVNIQIIEYEKKQI [T24I] is lower in protein stability index: 3.18 for the first, 2.08 for the second.

Going from YGSIHGPTDYQVNIQIIEYEKKQC [T24C] to YGSIHGPTDYQVNIQEIEYEKKQT [I16E], the protein stability index rises from 2.16 to 3.81.

Compared with YGSIHGPTDYQVNIQWIEYEKKQT [I16W], YGSIHGPTDYQVNIQVIEYEKKQT [I16V] is higher in protein stability index: 2.48 for the first, 3.15 for the second.

Compared with YGSIHGPTDYQVNIQQIEYEKKQT [I16Q], YGSIHGPTDYQVNIQAIEYEKKQT [I16A] is lower in protein stability index: 3.9 for the first, 3.8 for the second.

Going from YGSIHGPTDYQVNIQMIEYEKKQT [I16M] to YGSIHGPTDYQVNIQTIEYEKKQT [I16T], the protein stability index rises from 3.32 to 3.58.

First: YGSIHGPTDYQVNIQSIEYEKKQT [I16S]
Second: YGSIHGPTDYQVNIQCIEYEKKQT [I16C]
The protein stability index of the first is higher: 3.58 for the first, 2.96 for the second.

Going from YGSIHGPTDYQVNIQLIEYEKKQT [I16L] to YGSIHGPTDYQVNIQGIEYEKKQT [I16G], the protein stability index rises from 2.74 to 3.31.

Compared with YGSIHGPTDYQVNIQKIEYEKKQT [I16K], YGSIHGPTDYQVNIQNIEYEKKQT [I16N] is lower in protein stability index: 3.97 for the first, 3.55 for the second.

Going from YGSIHGPTDYQVNIQPIEYEKKQT [I16P] to YGSIHGPTDYQVNIQRIEYEKKQT [I16R], the protein stability index rises from 2.9 to 3.46.

First: YGSIHGPTDYQVNIQDIEYEKKQT [I16D]
Second: YGSIHGPTDYQVNIQHIEYEKKQT [I16H]
The protein stability index of the first is lower: 3.61 for the first, 3.91 for the second.

Going from YGSIHGPTDYQVNIQFIEYEKKQT [I16F] to YGSIHGPTDYQVNIQYIEYEKKQT [I16Y], the protein stability index rises from 2.51 to 2.71.
